Results as given in patent US20090311685A1, “NMU-GHSR1b/NTSR1 oncogenic signaling pathway as a therapeutic target for lung cancer” (Oncotherapy Science, Inc, priority 2006, published 2009).
Where no end group is shown, it is not given here.

What was measured:
[1] = biological target: T1, endogenous GHSR1b and NTSR1 on LC319 cells (Homo sapiens, UniProt P30989+Q92847); experiment: Ligand-receptor binding assay with Cy5-labeled NMU-25; details: 1 μM, dose-dependent
T1 construct: endogenous in cells; host or cells: LC319
T1 sequence (P30989 whole entry, one chain of several): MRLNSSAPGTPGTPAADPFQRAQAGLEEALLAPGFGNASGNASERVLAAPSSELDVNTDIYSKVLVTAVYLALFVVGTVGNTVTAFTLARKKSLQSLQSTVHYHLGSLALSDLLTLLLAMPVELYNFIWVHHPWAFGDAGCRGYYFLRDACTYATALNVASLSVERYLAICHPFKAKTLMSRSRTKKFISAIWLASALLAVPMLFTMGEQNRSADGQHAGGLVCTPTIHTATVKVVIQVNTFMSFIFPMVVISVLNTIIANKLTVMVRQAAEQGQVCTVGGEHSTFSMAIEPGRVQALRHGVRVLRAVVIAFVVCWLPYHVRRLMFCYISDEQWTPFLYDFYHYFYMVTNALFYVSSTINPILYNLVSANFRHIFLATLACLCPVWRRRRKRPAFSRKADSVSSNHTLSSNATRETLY
Experimental: (§1) To confirm the binding of NMU-25 to endogenous candidate receptors on the NSCLC cell, a receptor-ligand binding assay using LC319 and PC14 cells that express GHSR1b and NTSR1, but not NMU1R and NMU2R were performed. Specifically, trypsinized cells were seeded onto a 96-well (with black wall and clear bottom) microtiter plates 24 hours prior to the assay. The medium was removed and the cells were incubated with CyS-labeled NMU-25 peptide (1 μM) with or without the addition of 10-fold excess unlabeled NMU-25 peptide as the competitor. The plate was incubated in dark for 24 hours at 37° C. and then scanned on 8200 Cellular Detection System (Applied Biosystems) to quantify the amount of CyS fluorescence probe bound to the surface of each cell. (15) Immunocytochemistry for Internalized Receptors

[2] = biological target: T2, endogenous GHSR1b and NTSR1 on PC14 cells (Homo sapiens, UniProt P30989+Q92847); experiment: as above; details: 1 μM, dose-dependent
T2 construct: endogenous in cells; host or cells: PC14
T2 sequence (P30989 whole entry, one chain of several): as above
Experimental: as §1

[3] = test system: LC319 cells; experiment: Measurement of cAMP levels (cAMP EIA); assay type: cell-based, human; details: final concentrations of 3 to 100 μM
Experimental: Trypsinized LC319, REF-LC-AI, NCI-H358 and SK-MED-1 cells were seeded onto a 96-well microtiter plate (5.0×10^4 cells) and cultured in appropriate medium supplemented with 10% FCS for 24 hours, and then the medium was changed to serum free/1 mM IBMX (isobutylmethylxanthine) 20 min prior to the assay. Next, the cells were incubated with individual concentrations of peptides (NMU-25, GHRL, or NTS) for 20 min and cAMP levels of the cells were measured using cAMP EIA System (GE Healthcare Bio-sciences).

[4] = test system: LC319 cells; experiment: Intracellular Ca^2+ mobilization assay (FLIPR); assay type: cell-based, human
Experimental: Trypsinized LC319 cells were seeded onto poly-D-lysine coated 384-well black-wall, clear-bottom microtiter plate (1.0×10^4 cells/ml) 24 hours prior to the assay. The cells were loaded for 1 hour with 4 μM Fluo-3-AM fluorescent indicator dye in assay buffer (Hank's balanced salt solution, 20 mM HEPES, 2.5 mM probenecid), washed three times with assay buffer, and then incubated for 10 min at room temperature before detection on fluorometric imaging plate reader (FLIPR; Molecular Devices). Fluorescence data of Ca^2+ release were collected in real-time at 1 sec intervals for the first 65 sec and at 3 sec intervals for additional 300 sec after individual concentrations of peptide (NMU-25, […], or NTS) treatment. Maximum change in fluorescence over baseline was measured to determine the response of the cells to the individual peptide stimulations.

[5] = test system: NSCLC cells; experiment: Competition of NMU-induced cAMP production; assay type: cell-based
[6] = test system: LC319 cells; experiment: Flow cytometry of cell cycle after siRNA transfection; assay type: cell-based, human
Experimental: Cells were plated at a density of 5×10^5 cells/100-mm dish, transfected with siRNA-expression vectors, and cultured in the presence of appropriate concentrations of geneticin. Four days after transfection, the culture medium was replaced with geneticin-free medium. Cells were incubated for additional 24 hours, then trypsinized, collected in PBS, and fixed in 70% cold ethanol for 30 min. After treatment with 100 μg/ml RNase (Sigma-Aldrich Co.), the cells were stained with 50 μg/ml propidium iodide (Sigma-Aldrich Co.) in PBS. Flow cytometry was performed on Becton Dickinson FACSCalibur and analyzed by Cell Quest software (Becton Dickinson Biosciences). The percentage of nuclei in G0/G1, S, and G2/M phases on the cell cycle and the sub-GI population, were determined from at least 20,000 ungated cells.

[7] = test system: COS-7 cells; experiment: Flow-cytometric binding of rhodamine-labeled NMU-25 to cells; details: 0.5-10 μM, 2 hours at room temperature
Experimental: (11) Cell-Growth and Colony-Formation Assays COS-7 transfectants that stably express NMU were seeded onto 6-well plates (5×10^4 cells/well), and maintained in medium containing 10% FCS and 0.4 mg/ml geneticin for 24, 48, 72, 96, 120, and 144 hours. At each time point, cell proliferation was evaluated by MTT assay using Cell Counting Kit (WAKO). Colonies were counted at 144 hours. All experiments were done in triplicate. Interaction of NMU-25 with COS-7 cells were examined by flow-cytometric analysis. Specifically, subconfluent cells were harvested in Cell Dissociation Solution (Sigma-Aldrich Co.) and suspended in DMEM. Then, 1×10^6 cells/microtube were washed with assay buffer (PBS(−) with 10 mM MgCl2, 2 mM EDTA, and 0.1% BSA), and the cells were incubated with 0.5-10 μM rhodamine-labeled NMU-25 peptide (NMU-25-rhodamine; Phoenix Pharmaceuticals, Inc.) in assay buffer for 2 hours at room temperature. Subsequently, the cells were washed twice with assay buffer.
To detect the population of cells binding to rhodamine-labeled NMU-25, flow cytometry was performed using Becton Dickinson FACSCalibur and analyzed by Cell Quest software. The growth effect of NMU on NSCLC cells was also examined using LC319 cells transiently transfected with plasmids expressing NMU or mock plasmids. The cells were cultured in RPMI containing 10% FCS and geneticin (1 mg/ml) for 18 days, and colonies were counted.

[8] = test system: LC319 cells; experiment: Internalization study with fluorescence ligand of NMU (confocal microscopy); assay type: cell-based, human
Experimental: LC319 cells were grown in DMEM containing 10% FCS. The cells were washed in PBS(−), and preincubated for 10 min at 37° C. in DMEM containing 0.1% BSA. The cells were then incubated for various periods of time with Alexa Fluor 594-labeled NMU-25 peptide in DMEM containing 0.1% BSA. At the end of incubation, the cells were washed three times with ice-cold PBS(−), fixed with 4% paraformaldehyde solution, initially for 5 min on ice and then for 15 min at room temperature. The cells were washed, and treated with DAPI. Images were viewed and assessed using confocal microscopy (TCS SP2 AOBS; Leica Microsystems). Optical sections with intervals of 0.25 μm were taken with 63×/1.4 objective.

[9] = biological target: T3, FLAG-tagged NTSR1 (Homo sapiens (Human), UniProt P30989 1-418); experiment: DSP cross-linking, immunoprecipitation and Western blot of transfected COS-7 cells
T3 construct: Transiently expressed in COS-7 cells; COS-7 cells also express GHSR1b and NTSR1 endogenously, so in the cells transfected only with FLAG-GHSR1b the NTSR1 partner is the endogenous COS-7 protein; also called NTSR1 (p3XFLAG-CMV10 construct); not shown: FLAG tag from the p3XFLAG-CMV10 vector
T3 sequence (P30989 whole entry A200T): as the sequence (P30989 whole entry, one chain of several) above, with A200T counted along it
Experimental: (§2) Cultured cells were washed twice with ice-cold PBS(−) and incubated with 5 mM Dithiobis [succinimidyl propionate] (DSP) (PIERCE) for 60 min in PBS(−) on ice. The reaction was quenched by incubation with Stop solution (1 M Tris, pH 7.5) at a final concentration of 50 mM Tris for 15 min on ice. The cells were then washed twice with ice-cold PBS(−) and lysed in ice-cold Tx/G buffer (300 mM NaCl, 1% Triton X-100, 10% glycerol, 1.5 MM MgCl₂, 1 mM CaCl₂, and 10 mM iodoacetamide in 50 mM Tris-Cl, pH 7.4) containing protease inhibitor (Protease Inhibitor Cocktail Set III; Calbiochem) for 60 min on ice. […] The solutions were subjected to SDS-PAGE, and receptor proteins were detected by Western blot analysis using mouse monoclonal anti-FLAG M2 antibody, goat polyclonal anti-NTSR1 antibody, or rabbit polyclonal anti-GHSR antibody as the primary antibody, and rec-Protein G-Peroxidase Conjugate (ZYMED Laboratories, Inc.) to detect the antigen-antibody complexes.
To examine direct association between GHSR1b and NTSR1, either or both of FLAG-tagged GHSR1b and FLAG-tagged NTSR1 were transiently expressed in COS-7 cells (FIG. 2A depicts the data of transient GHSR1b expression, and FIG. 2B the expression of both receptors). […] No such species were detected when empty vector (mock) was transfected to COS-7 cells as the negative control.

[10] = biological target: the molecule itself; experiment: anti-FLAG immunoprecipitation, SDS-PAGE, immunoblot with anti-FLAG, anti-NTSR1 or anti-GHSR antibody
Text: Cell lysates from COS-7 cells that transiently express the FLAG-tagged GHSR1b, and those co-expressing both the FLAG-tagged GHSR1b and NTSR1 were immunoprecipitated with anti-FLAG antibody, subjected for SDS-PAGE, and then immunoblotted with anti-FLAG antibody (A), with anti-NTSR1 antibody (B), or with anti-GHSR antibody (C). The arrows indicate the monomer, heterodimer, and homodimers of the receptors. The molecular weight (kDa) markers are indicated on the left side of individual panels. Non-specific immunoreactive protein band detected by anti-FLAG antibody is indicated with asterisks.
as §2, with “ice.” for “ice. The cells were then washed twice with ice-cold PBS(−) and lysed in ice-cold Tx/G buffer (300 mM NaCl, 1% Triton X-100, 10% glycerol, 1.5 MM MgCl₂, 1 mM CaCl₂, and 10 mM iodoacetamide in 50 mM Tris-Cl, pH 7.4) containing protease inhibitor (Protease Inhibitor Cocktail Set III; Calbiochem) for 60 min on ice.”

## Cy5-labeled NMU-25: Cy5 fluorescence-labeled NMU-25 peptide for the receptor-ligand binding assay (FRVDEEFQSPFASQSRGYFLFRPRN; ends and bridges not checked; also: Cy5 fluorescence label, site not given here)
[1]
  binding to the cell surface: detected to bind to the surface
[2]
  binding to the cell surface: detected to bind to the surface

## nerotensin [NTS]
[3]
  cAMP production: did not enhance
[4]
  intracellular Ca^2+ flux / mobilization: caused the mobilization response
[5]
  NMU-induced cAMP production: competitively inhibited

## si-EGFP: control siRNA against enhanced green fluorescent protein gene, 5′-GAAGCAGCACGACTTCTTC-3′ (SEQ ID NO: 46) (chemistry not given here)
[6]
  sub-GI fraction: 11.2%

B1: rhodamine-labeled NMU-25 peptide: rhodamine-labeled NMU-25 peptide (Phoenix Pharmaceuticals, Inc.) (conjugate)
peptide: MLRTESCRPRSPAGQVAAASPLLLLLLLLAWCAGACRGAPILPQGLQPEQQLQLWNEIDDTCSSFLSIDSQPQASNALEELCFMIMGMLPKPQEQDEKDNTKRFLFHYSKTQKLGKSNVVSSVVHPLLQLVPHLHERRMKRFRVDEEFQSPFASQSRGYFLFRPRNGRRSAGFI
[7]
  binding to the cell surface (flow cytometry): bound to the surface of COS-7 cells in a dose-dependent manner

B2: NMU-25-Alexa594: Alexa Fluor 594-labeled NMU-25 peptide (conjugate)
peptide: MLRTESCRPRSPAGQVAAASPLLLLLLLLAWCAGACRGAPILPQGLQPEQQLQLWNEIDDTCSSFLSIDSQPQASNALEELCFMIMGMLPKPQEQDEKDNTKRFLFHYSKTQKLGKSNVVSSVVHPLLQLVPHLHERRMKRFRVDEEFQSPFASQSRGYFLFRPRNGRRSAGFI
[8]; 15-min incubation
  localization of internalized ligand: concentrated in dots or irregular clusters at more peripheral part of the cytoplasm
[8]; 45-min incubation
  localization of internalized ligand: concentrated within small spots clustered in the center of the cells, close to the nucleus
[8]; confocal microscopy
  internalization of labeled ligand (xz- and yz-projections): incorporated within the cells

B3: FLAG-tagged GHSR1b (receptor)
chain: MWNATPSEEPGFNLTLADLDWDASPGNDSLGDELLQLFPAPLLAGVTATCVALFVVGIAGNLLTMLVVSRFRELRTTTNLYLSSMAFSDLLIFLCMPLDLVRLWQYRPWNFGDLLCKLFQFVSESCTYATVLTITALSVERYFAICFPLRAKVVVTKGRVKLVIFVIWAVAFCSAGPIFVLVGVEHENGTDPWDTNECRPTEFAVRSGLLTVMVWVSSIFFFLPVFCLTVLYSLIGRKLWRRRRGDAVVGASLRDQNHKQTVKMLGGSQRALRLSLAGPILSLCLLPSL
notes: Transiently expressed in COS-7 cells; Cross-linked with DSP, immunoprecipitated with anti-FLAG beads and blotted; also called GHSR1b (p3XFLAG-CMV10 construct); not shown: FLAG tag from the p3XFLAG-CMV10 vector
[9]
  binding result: binds
[10]
  binding result: binds
